Assay results reported in patent US20250345446A1 (Draupnir Bio ApS, priority 2022, published 2025).
Residues, ends and D or L forms follow the SMILES beside them. *: point of attachment. Biotin = O=C1N[C@H]2[C@H](CS[C@H]2CCCCC(=O)*)N1

Key:
[1] = biological target: T1, soluble ectodomain of sortilin-6his (Homo sapiens, UniProt Q99523, V650M); experiment: MST binding to soluble ectodomain of sortilin-6his; details: Table 1; biotin-linker-peptide bifunctional compounds; MST; read-out: KD score, binding to sortilin (Kd)
T1 construct: the soluble ectodomain of sortilin-6his is measured by microscale thermophoresis (MST)
T1 sequence (Q99523 with tags, fused parts or gaps V650M): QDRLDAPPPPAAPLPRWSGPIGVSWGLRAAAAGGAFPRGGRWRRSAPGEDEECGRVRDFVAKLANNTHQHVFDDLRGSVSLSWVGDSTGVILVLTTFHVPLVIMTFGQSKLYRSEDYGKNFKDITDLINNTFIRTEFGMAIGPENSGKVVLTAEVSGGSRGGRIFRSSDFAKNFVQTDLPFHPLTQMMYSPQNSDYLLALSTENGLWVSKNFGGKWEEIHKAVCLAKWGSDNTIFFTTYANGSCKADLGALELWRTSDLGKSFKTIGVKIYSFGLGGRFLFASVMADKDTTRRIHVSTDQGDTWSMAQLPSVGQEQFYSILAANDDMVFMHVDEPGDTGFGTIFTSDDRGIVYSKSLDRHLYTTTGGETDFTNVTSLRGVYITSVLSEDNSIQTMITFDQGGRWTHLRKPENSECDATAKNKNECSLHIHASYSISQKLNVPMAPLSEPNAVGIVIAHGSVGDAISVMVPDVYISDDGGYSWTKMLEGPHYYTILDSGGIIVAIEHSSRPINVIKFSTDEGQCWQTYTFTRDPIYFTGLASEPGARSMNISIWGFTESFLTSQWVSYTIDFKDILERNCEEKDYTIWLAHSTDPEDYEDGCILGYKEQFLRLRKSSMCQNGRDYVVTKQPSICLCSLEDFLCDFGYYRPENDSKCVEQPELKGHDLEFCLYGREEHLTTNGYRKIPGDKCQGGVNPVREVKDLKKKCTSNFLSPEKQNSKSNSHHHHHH

[2] = biological target: streptavidin, bifunctional compound and sortilin-6his (UniProt P22629+Q99523, V650M); experiment: TR-FRET ternary complex formation streptavidin / bifunctional peptide / sortilin-6his; details: Table 2; […] incubation, HTRF ratio 665/620 nm
Sortilin-6His [3] = biological target: T2, Sortilin-6His (Homo sapiens (Human), UniProt Q99523 78-755); experiment: MST on labelled sortilin-6his ectodomain; KD score: ++ <100 nM, + 100-2000 nM
T2 construct: In MST it was labelled non-covalently with RED-tris-NTA; also called soluble ectodomain of sortilin-6his; fluorescent sortilin-6his
T2 sequence (Q99523 78-755 V650M limits assumed): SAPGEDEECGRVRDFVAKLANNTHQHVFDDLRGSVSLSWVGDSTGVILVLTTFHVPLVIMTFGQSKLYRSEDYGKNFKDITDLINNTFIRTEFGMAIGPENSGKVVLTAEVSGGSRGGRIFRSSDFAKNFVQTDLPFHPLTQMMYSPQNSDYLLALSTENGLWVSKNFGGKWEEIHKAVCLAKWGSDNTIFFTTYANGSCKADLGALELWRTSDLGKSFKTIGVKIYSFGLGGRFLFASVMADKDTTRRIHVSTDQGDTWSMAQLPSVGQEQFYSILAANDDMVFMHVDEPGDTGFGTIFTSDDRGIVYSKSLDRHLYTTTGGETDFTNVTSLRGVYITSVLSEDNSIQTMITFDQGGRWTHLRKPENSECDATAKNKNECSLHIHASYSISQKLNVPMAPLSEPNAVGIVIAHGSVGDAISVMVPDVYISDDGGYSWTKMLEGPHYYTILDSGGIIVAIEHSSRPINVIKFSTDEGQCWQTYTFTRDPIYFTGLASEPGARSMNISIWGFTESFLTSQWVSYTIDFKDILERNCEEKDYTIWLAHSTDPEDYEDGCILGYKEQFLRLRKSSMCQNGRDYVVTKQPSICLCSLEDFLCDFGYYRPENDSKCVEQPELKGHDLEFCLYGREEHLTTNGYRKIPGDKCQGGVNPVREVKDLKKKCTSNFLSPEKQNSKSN

Sortilin-6His [4] = biological target: T2, Sortilin-6His; experiment: TR-FRET (HTRF) ternary complex streptavidin-d2 / biotin-peptide / sortilin-6His; AUC score: + <5000, ++ >5000

| Molecule | Kd [1] [nM] | AUC score, TR-FRET measurements of ternary complex formation [2] | KD (Sortilin-6His [3]) [nM] | AUC of TR-FRET (HTRF ratio vs compound concentration) for ternary complex formation (Sortilin-6His [4]) [auc] |
| --- | --- | --- | --- | --- |
| CC(C)C[C@H](NC(=O)[C@H](CC(C)C)NC(=O)[C@H](CCC(N)=O)NC(=O)[C@H](CCCNC(=N)N)NC(=O)CNC(=O)[C@H](CO)NC(=O)CNC(=O)CNC(=O)CNC(=O)CNC(=O)[C@H](CO)NC(=O)CNC(=O)CNC(=O)CCCC[C@@H]1SC[C@@H]2NC(=O)N[C@@H]21)C(=O)O [compound 141] (Biotin-GGSGGGGSGRQLL-OH) | < 100 | + (AUC < 5000) | – | – |
| CC(C)C[C@H](NC(=O)[C@H](CC(C)C)NC(=O)[C@H](CCC(N)=O)NC(=O)[C@H](CCCNC(=N)N)NC(=O)[C@H](CO)NC(=O)CNC(=O)CNC(=O)CNC(=O)CNC(=O)[C@H](CO)NC(=O)CNC(=O)CNC(=O)CNC(=O)CNC(=O)[C@H](CO)NC(=O)CNC(=O)CNC(=O)CCCC[C@@H]1SC[C@@H]2NC(=O)N[C@@H]21)C(=O)O [compound 142] (Biotin-GGSGGGGSGGGGSRQLL-OH) | < 100 | + (AUC < 5000) | – | – |
| CC(C)C[C@H](NC(=O)[C@H](CC(C)C)NC(=O)[C@H](CCC(N)=O)NC(=O)[C@H](Cc1ccccc1)NC(=O)CNC(=O)[C@H](CO)NC(=O)CNC(=O)CNC(=O)CNC(=O)CNC(=O)[C@H](CO)NC(=O)CNC(=O)CNC(=O)CCCC[C@@H]1SC[C@@H]2NC(=O)N[C@@H]21)C(=O)O [compound 145] (Biotin-GGSGGGGSGFQLL-OH) | < 100 | + (AUC < 5000) | – | – |
| Biotin-GGSGGGGSGGGFQLL-OH (SMILES CC(C)C[C@H](NC(=O)[C@H](CC(C)C)NC(=O)[C@H](CCC(N)=O)NC(=O)[C@H](Cc1ccccc1)NC(=O)CNC(=O)CNC(=O)CNC(=O)[C@H](CO)NC(=O)CNC(=O)CNC(=O)CNC(=O)CNC(=O)[C@H](CO)NC(=O)CNC(=O)CNC(=O)CCCC[C@@H]1SC[C@@H]2NC(=O)N[C@@H]21)C(=O)O) [Biotin-GGSGGGGSGGGFQLL-OH] | – | – | 100 to 2000 | > 5000 |
| Biotin-GGSGGGGSGGGRQLL-OH (SMILES CC(C)C[C@H](NC(=O)[C@H](CC(C)C)NC(=O)[C@H](CCC(N)=O)NC(=O)[C@H](CCCNC(=N)N)NC(=O)CNC(=O)CNC(=O)CNC(=O)[C@H](CO)NC(=O)CNC(=O)CNC(=O)CNC(=O)CNC(=O)[C@H](CO)NC(=O)CNC(=O)CNC(=O)CCCC[C@@H]1SC[C@@H]2NC(=O)N[C@@H]21)C(=O)O) [Biotin-GGSGGGGSGGGRQLL-OH] | – | – | 100 to 2000 | < 5000 |
| Biotin-GGSGGGGSGGGGSRQLL-OH (SMILES CC(C)C[C@H](NC(=O)[C@H](CC(C)C)NC(=O)[C@H](CCC(N)=O)NC(=O)[C@H](CCCNC(=N)N)NC(=O)[C@H](CO)NC(=O)CNC(=O)CNC(=O)CNC(=O)CNC(=O)[C@H](CO)NC(=O)CNC(=O)CNC(=O)CNC(=O)CNC(=O)[C@H](CO)NC(=O)CNC(=O)CNC(=O)CCCC[C@@H]1SC[C@@H]2NC(=O)N[C@@H]21)C(=O)O) [Biotin-GGSGGGGSGGGGSRQLL-OH] | – | – | < 100 | < 5000 |
| Biotin-GGSGGGGSGGGGSFQLL-OH (SMILES CC(C)C[C@H](NC(=O)[C@H](CC(C)C)NC(=O)[C@H](CCC(N)=O)NC(=O)[C@H](Cc1ccccc1)NC(=O)[C@H](CO)NC(=O)CNC(=O)CNC(=O)CNC(=O)CNC(=O)[C@H](CO)NC(=O)CNC(=O)CNC(=O)CNC(=O)CNC(=O)[C@H](CO)NC(=O)CNC(=O)CNC(=O)CCCC[C@@H]1SC[C@@H]2NC(=O)N[C@@H]21)C(=O)O) [Biotin-GGSGGGGSGGGGSFQLL-OH] | – | – | 100 to 2000 | > 5000 |
